{"source": "IntAct's records for PubMed 17292842", "parents": {"B1": {"name": "Rab guanine nucleotide exchange factor SEC2 (Saccharomyces cerevisiae), P17065 (parent)", "chain": "MDASEEAKRVSIQVTSLSTQLIESVDKQSHLEEQLNKSLKTIASQKAAIENYNQLKEDYNTLKRELSDRDDEVKRLREDIAKENELRTKAEEEADKLNKEVEDLTASLFDEANNMVADARKEKYAIEILNKRLTEQLREKDTLLDTLTLQLKNLKKVMHSLDNESTVTNNSNRYSTILSDSATSSSTSLNKVPTSYSLASQDIYSGIVYSPSISSIRYDISLYNEFLKFVAALPRCENIKATSTESKLIRRLVNDEIQPILKIDNASGIGWLVKKTLLSLIIDGLVVVEPLSGVNATYQIGYNSSSPAKQATSNMPKMFKFPLDSPPVAVHAACSFCGESRDDIIEHARMYILKTLHKTDDGKEQVTNTYPLCHWCLLKLRQTCEIFAFLRSLKVGAWHLEKLTTQNITKEDLEKFSEVTKHTKRDGRVSSQDKKTKRLSFMAGLGINSSTKNKPKMEIFSSETNAKPGQPTTNIQRAWLQLCKLRCILHWTHIGIWAVDDSISSKIGPLVEDDSDEDQNDAISVRLQDKALWKQDAKRPFSSSSAEESQKSDAFDFESGDMENEITGESSSDESSSDGSSTDNSTADSSSEDESSLADSTTSSADSSSPESIDNGEGDDTVTKDDKSSIKSANNNEENSDCGDKKGRSIIKKKAPQRKIQKKKLLQDLDDLEEQFREESAIDQTEFENAESNVKQNISSKRASSGDENSKKDNNEKTLKTNLTIGDKTQEQIGENSPSSGLHASSSNDDNFDDAQEQQ", "partner": "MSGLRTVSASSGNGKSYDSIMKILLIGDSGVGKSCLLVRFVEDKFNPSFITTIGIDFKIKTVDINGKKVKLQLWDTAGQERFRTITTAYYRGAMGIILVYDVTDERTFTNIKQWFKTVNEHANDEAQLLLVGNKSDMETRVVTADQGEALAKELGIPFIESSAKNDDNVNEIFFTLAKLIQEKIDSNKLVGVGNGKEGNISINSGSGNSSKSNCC"}}, "data": [{"variants_of": "B1", "settings": "with sec4_yeast SEC4, P07560", "values": [{"variant": "F109A", "effect of a mutation on the interaction": "disrupting interaction"}, {"variant": "L104A", "effect of a mutation on the interaction": "disrupting interaction"}, {"variant": "E100A", "effect of a mutation on the interaction": "disrupting interaction"}]}]}
